The source of these data is US20180201657A1.

Bounds are passed on as bounds.

The target of data set [1] is CD4-TM:CaMbp(M2):eLOV:TEVcs(high affinity):Gal4 (Avena sativa). Put plainly: cell-based or functional assay.
The target in data set [2] is CD4-TM:CaMbp(M2):LOV:TEVcs(high affinity):Gal4 (original LOV2) (Avena sativa). In words: cell-based or functional assay.
In data set [3] the target is CD4-TM:CaMbp(M2):TEVcs:Gal4 (without LOV domain) (UniProt P04386). In words: cell-based or functional assay.
Data set [4] addresses FLARE transcription factor component as used in cultured neurons (Neurexin-3b-derived TM, soma targe (Avena sativa)). Put plainly: cell-based or functional assay.
For data set [5], the target named is Aga2p-HA-eLOV-TEVcs(ENLYFQY)-FLAG displayed on yeast (UniProt P32781).

Chain of CD4-TM:CaMbp(M2):eLOV:TEVcs(high affinity):Gal4 (Avena sativa) (Q2QYY8 other isoform, or with tags, fused parts or gaps): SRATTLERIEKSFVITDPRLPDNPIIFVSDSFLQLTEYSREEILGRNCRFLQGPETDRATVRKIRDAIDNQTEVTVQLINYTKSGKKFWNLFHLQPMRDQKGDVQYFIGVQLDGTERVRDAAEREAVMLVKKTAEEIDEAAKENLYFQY

As to “CaM-TEV(truncated) (from UniProt P04517 2038-2256)”, the results for the high/low Ca^2+ S/N (reporter expression, HEK cells) in data set [1], in data set [2] and in data set [3] were 16, 5 and 2, respectively. The values for the light/dark S/N (reporter expression, HEK cells) in data set [1] and in data set [2] were 23 and 2, respectively.
For “FLARE protease component as used in cultured neurons (CaM-TEV) (from UniProt P04517 2038-2256)”, in data set [4], the S/N with versus without neuronal activity (mCherry, field stimulation with blue light, 8 minutes) was found to be 11; the light/dark S/N (mCherry reporter, cultured neurons, field stimulation, FIG. 10D) was 17; the light/dark S/N (mCherry reporter, cultured neurons, media change, FIG. 10C) stood at 121; the mCherry signal with stimulation against light exposed/non-stimulated neurons is more than 10 fold.
As for MBP-TEV(S219V) fusion, purified, the “anti-Flag/anti-HA staining of yeast after TEV protease treatment in the dark (FACS)” value in data set [5] is “Evolved LOV displays superior protection of TEVcs against TEV cleavage in the dark state”.
